The target of one assay is T1, hASIC1a (Homo sapiens, UniProt P78348).
T1 construct: expressed in transfected cells
T1 sequence (P78348 1-528): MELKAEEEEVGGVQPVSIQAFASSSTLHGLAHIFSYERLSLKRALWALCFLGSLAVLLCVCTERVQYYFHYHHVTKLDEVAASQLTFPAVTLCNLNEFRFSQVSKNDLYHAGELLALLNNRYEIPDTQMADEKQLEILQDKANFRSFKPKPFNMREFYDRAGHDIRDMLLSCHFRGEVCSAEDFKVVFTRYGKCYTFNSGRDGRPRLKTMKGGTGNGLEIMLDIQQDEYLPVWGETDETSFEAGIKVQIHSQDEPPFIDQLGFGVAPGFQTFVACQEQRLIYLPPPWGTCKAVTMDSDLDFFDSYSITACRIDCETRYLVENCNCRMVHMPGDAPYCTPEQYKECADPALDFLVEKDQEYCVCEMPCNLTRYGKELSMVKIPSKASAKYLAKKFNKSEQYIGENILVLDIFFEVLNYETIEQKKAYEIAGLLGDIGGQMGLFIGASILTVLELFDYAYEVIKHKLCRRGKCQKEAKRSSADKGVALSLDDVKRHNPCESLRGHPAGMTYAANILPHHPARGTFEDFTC
As to the kind of experiment: Steady-state desensitization (SSD) and pH activation of hASIC1a, patch clamp. It is filed as cell-based. On the procedure:
For the measurement of steady-state desensitization (SSD), the pH of the conditioning ECF was adjusted to 7.6, 7.4, 7.2, 7.0, and 6.8 (in a HEPES buffer), while the activating ECF was maintained at pH 6.0 (in an MES buffer). For the measurement of pH activation of the hASIC1a in the 6H7 stable cells, the conditioning ECF was fixed at pH 7.6 (in a HEPES buffer), and the pH of the activating ECF was adjusted to 7.4, 7.2, 7.0, 6.8, 6.5, 6.3, and 6.0. The hASIC1a currents were recorded when the stable cell line 6H7 was patched in the presence and absence of 300 nM ASC06-IgG1. The relative currents expressed as fractions of the maximum amplitude on the sensorgram (I/Imax) were calculated and plotted to constitute SSD and pH activation profiles. Each data point represents the average of at least five patched cells.
To understand the mechanism by which ASC06-IgG1 blocked the hASIC1a currents, SSD and pH activation of hASIC1a in the absence and presence of ASC06-IgG1 were examined. The pH50 (a drop in extracellular pH, which can open 50% of the ASIC1a channel) values of the SSD curve and the pH activation curve for hASIC1a were measured and compared with or without 300 nM ASC06-IgG1. As shown in FIGS. 11A-11B, the SSD was induced when applying the conditioning extracellular fluids (ECFs) with different pH values and the activating ECF at pH 6.0, whereas the pH activation curve was constructed when applying the activating ECFs with varying pH values and the conditioning ECF at pH 7.6.
(The patch-clamp technique gives a direct electrical read-out from membranes.)

Another assay concerns the target T2, ΔhASIC1a (Homo sapiens, UniProt P78348).
T2 construct: A truncated ASIC1a (amino acids 13-464; ΔhASIC1a) was overexpressed and purified; made in house; host or cells: HEK293F (BacMam baculovirus)
T2 sequence (P78348 13-464): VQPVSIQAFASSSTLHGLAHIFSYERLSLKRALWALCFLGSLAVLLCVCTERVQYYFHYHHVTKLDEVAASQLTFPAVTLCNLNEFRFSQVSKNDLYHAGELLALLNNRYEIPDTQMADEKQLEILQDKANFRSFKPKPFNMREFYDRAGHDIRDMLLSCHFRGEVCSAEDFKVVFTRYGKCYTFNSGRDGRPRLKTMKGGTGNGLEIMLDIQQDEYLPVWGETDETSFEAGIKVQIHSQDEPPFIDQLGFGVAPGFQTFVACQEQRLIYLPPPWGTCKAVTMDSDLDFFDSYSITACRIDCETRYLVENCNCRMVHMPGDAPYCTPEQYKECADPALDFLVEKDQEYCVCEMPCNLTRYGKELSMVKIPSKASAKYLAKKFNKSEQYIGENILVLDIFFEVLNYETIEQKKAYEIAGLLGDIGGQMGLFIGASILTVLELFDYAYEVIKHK
Briefly: Biacore SPR binding affinity, single cycle kinetic model. Conditions: Biacore T200, purified ΔhASIC1a protein, read-out: apparent KD / binding affinity to ΔhASIC1a. A general note: SPR reads the build-up and loss of mass on a sensor chip optically.

In assay [1] the test system is primary cortical neurons from the ASIC1a KO mice (ASIC1a−/−). Briefly: ICC staining of primary cortical neurons from ASIC1a KO mice. It is filed as cell-based, mouse. The protocol:
Cell Culture. The CHO-K1 cell line (#CRL-9618; ATCC) was maintained in an F-12k media (#21127022; Gibco) containing 10% (vol/vol) FBS (#1600074; Gibco), whereas the FreeStyle 293F (#R79007; ThermoFisher Scientific) cell line was cultured in a Freestyle 293 expression media (#12338026; Thermo-Fisher Scientific). Spodoptera frugiperda 9 (Sf9) cells (#12659017; Thermo-Fisher Scientific) was cultured at 27° C. in an ESF921 media (#96-001-01; Expression Systems). Primary cortical neurons dissected from E18-d-old C57 BL/6 mice or ASIC1a^−/− mice were maintained in a Neurobasal media (#21103049; Gibco) supplemented with B27 (#17504044; Gibco) and Glutamx I (#35050061; Gibco). The CHO-K1/hASIC1a stable cell line overexpressing the full-length hASIC1a (1-528 amino acids) channel was generated as follows: The cDNA of the full-length hASIC1a with a C-terminal eYFP fusion or a C-terminal mCherry fusion was constructed, cloned into a pCDNA3.1-Neo expressing vector, and transfected into the CHO-K1 cells using Lipofectin 2000. The CHO-K1/hASIC1a stable cell line was selected by the antibiotic, geneticin (up to 1 mg/mL), and validated by the fused fluorescence proteins eYFP (λex=488 nm; λem=528 nm) or mCherry fluorescence (λex=587 nm; λem=610 nm) using flow cytometry. Over 80% positive cells survived when cultured in the presence of 200 µg/mL geneticin for 30 days. […]

Protocol for ΔhASIC1a: Surface plasmon resonance (SPR) and flow cytometry were used to study the interaction between the monoclonal antibody and hASIC1a. SPR-binding studies were performed on a Biacore T200 (GE Healthcare). The anti-Flag antibody was amine coupled to the surface of a biosensor chip CM5 series S (GE Healthcare). The recombinant Flag-tagged ΔhASIC1a was then immobilized onto the chip surface. […] The kinetics of binding/dissociation was measured as a change in the SPR signal resonance units. Apparent binding affinities were calculated using the Biacore T200 evaluation software with a single-cycle kinetic model.

B1: ASC06-IgG1: ASC06 antibody converted into a full length IgG1 form (antibody, V domains shown)
VH: QVQLQQSGGGLVQPGGSLRLSCAASGFTFSSYAMSWVRQAPGKGLEWVSAISGSGGSTYYADSVKGRFTISRDNSKNTLYLQMNSLRAEDTAVYYCAKDSFYGYSKGDWGQGTLVTVSS
VL: QSALTQPASVSGSPGQSITISCTGTSSDVGAYNYVSWYQQQPGKAPKLMIYGVSNRPSGVSNRFSGSKSGNAASLTISGLQAEDEADYYCSSYTSSSTYVFGTGTKLTVLG
For B1, in the assay with hASIC1a, the “mechanism of block relative to proton concentration” value is on record as “noncompetitive with the proton concentration”. Moreover, the “change of pH50 value of SSD” value with hASIC1a (300 nM, activating ECF pH 6.0) is “No significant differences”. The “change of pH50 value of pH activation” value with hASIC1a (300 nM, conditioning ECF pH 7.6) is listed as “No significant differences”. Also, the “interference with SSD and activation of ASIC1a” value with hASIC1a (300 nM, representative traces) is reported as “interferes with neither SSD nor activation”. For the same molecule, in the assay with ΔhASIC1a, the Kd came to 7.9 nM. Moreover, the “binding to KO neurons transfected with hASIC1a-mCherry” value in assay [1] (transfected with hASIC1a-mCherry) is on record as “binding occurs in the postsynaptic dendrites”. Moreover, in assay [1] (untransfected ASIC1a−/− neurons), the “binding to primary neurons from the KO mice” value is “no apparent binding”.

These data come from US12692310B2, “ASIC1 channel antagonist antibody” (ShanghaiTech University, priority 2019, dated 2026).
